Substrate in the data set: N[C@@H](Cc1ccccc1)C(=O)O
Nature of the data set: LC-MS decarboxylation assay, Michaelis-Menten fit. Type of data set: biochemical, Enterococcus faecium. To be noted: 100 μM PLP, 200 mM sodium acetate pH 5.5, 100 nM enzyme, 37 °C.

B1: Efm_TyrDC (Enterococcus faecium) (protein)
chain: MKDMDIKAVFIGDKAENGPVYKMLLNKMVDEHLGWRENYIPSDMPAISEGDKLTPDYLATRDHMIEVLDEVSQRLRAGSIPWHSAGRYWGQMNAETLMPALLAYNYAMLWNPNNVALESSMATSQMEAEVGQDFASLFNMADGWGHIAADGSIANLEGLWYARCIKSIPLAVKEVLPEKVKNMSEWALLNLSVEEILEMTESFTDEEMDEVKAASSRSGKNIQKLGKWLVPQTKHYSWMKALDICGVGLDQMVAIPVQEDYRMDINALEKTIRELADQKIPILGVVAVVGTTEEGQVDSVDKIIQLREKLKDEGIYFYLHVDAAYGGYARSLFLNEAGEFVPYASLAEFFEEHHVFHHYVTIDKEVYEGFRAISEADSVTIDPHKMGYVPYAAGGIVIKHKNMRNIISYFAPYVFEKSVKAPDMLGAYILEGSKAGATAAAVWTAHRVLPLNVTGYGQLIGASIEAAQRFREFLEQLHFTVKGKTIEVYPLNHPDFNMVNWVFKVQDCTDLNAINELNEKMFDRSSYMDGDVYGERFITSHTTFTQEDYGDSPIRFIERMGLSKEEWQKEQQITLLRAAIMTPYLNDDRIFNFYTKEIAKAMEKKLNEIIK
The Km is the substrate concentration at which the rate is half of its maximum. Consider B1, for which the Michaelis-Menten constant (Km) was 8.5 mM.

For the origin of these results see publication doi:10.1101/2021.12.16.472979v1.
